Data from patent US20090163594A1, “Triple Assay System for Identifying Substrate Selectivity of Gamma Secretase Inhibitors” (ELAN PHARMACEUTICALS, INC., priority 2007, published 2009).

Assays:
[1] = molecular target: T1, gamma secretase, AICD-GVP generated from C99-GVP (Homo sapiens, UniProt P49768); assay: Luciferase reporter gene assay, HEK293 cells transfected with C99GVP; format: cell-based; settings: dose-dependent, FIG. 5C
T1 construct: endogenous in cells
Experimental: Inhibitor Treatment of Transfected HEK Cell: The transition state analogue gamma secretase inhibitor-L685,458 (Sigma) and the peptidomimetic inhibitor-DAPT (Dovey, H. F., et al., J Neurochem., 2001; 76:173-181) were dissolved in DMSO to make 20 mM stocks. Similarly, a number of Elan's series of sulfonamide inhibitors were prepared and used as described herein (see, also FIGS. 11-14). Inhibitors were added to cell cultures (e.g., HEK) at the indicated final concentration, and the treated cells were harvested 48 h post-transfection. The metallo-proteinase inhibitor TAPI-1 (Calbiochem) was used at a final concentration of 40 μM. The Aβ-degrading enzyme inhibitors, Bacitracin (Calbiochem) and phosphoramidon (Calbiochem) were used at final concentration of 1 mg/ml and 40 μM, respectively. […]
Luciferase Reporter Gene Assay: Luciferase reporter assays were carried out 48 hr post-transfection. […] After adding 100 μl of luminescent substrate (Promega), the luciferase activity was measured with a MicroLumatPlus microplate luminometer (Berthold Technologies). The P-galactosidase activity was measured similarly, using a luminescent β-galactosidase substrate (BD Biosciences). […]
Luciferase Assay. […] Some residual luciferase activity remained in the presence of excess gamma secretase inhibitors, even though identical treatment completely abolished AICD production as measured by Western blot (FIG. 5B).

[2] = molecular target: T2, gamma secretase, APP γ and ε cleavage (Homo sapiens, UniProt P49768); assay: Aβ and AICD ELISA, Fas-APPsw-DD transfected 293 cells; format: cell-based
T2 construct: endogenous in cells; host or cells: 293 cells transfected with Fas-APPsw-DD
Experimental: (§1) ELISAs used to quantify different Aβ species were performed using standard techniques as described above and in (Johnson-Wood, K., et al., Proc. Natl. Acad. Sci. U.S.A., 1997; 94: 1550-1555, incorporated by reference). The Aβ40 and Aβ42 peptides in the samples were captured onto 2G3 or 21F12 antibody coated plates, respectively, and detected with a biotinylated 2H3 antibody. The fluorescence signal generated from a streptavidin-alkaline phosphatase conjugate (Roche) was measured with a CytoFlour microplate reader (Applied Biosystems). Synthetic Aβ40 or Aβ42 peptides (Anaspec) were used to generate standard curves (FIG. 10). All measurements were done in triplicate.
An AICD sandwich ELISA was established based on capture of cell lysates with any of the AICD polyclonal or monoclonal antibodies discussed above, and reporting back with antibody directed at the extreme C-terminus of APP (e.g., 13G8, prepared in-house). Alternatively, luciferase-based reporter assays can be used to detect and quantify the presence of AICD and correlate those numbers to inhibitory potency of known or potential gamma secretase inhibitor compounds.
Polyclonal antibody AICD ELISA. HEK 293 cells were grown under standard conditions to ˜90% confluence. Cells were harvested, counted, and subsequently plated onto PDL-coated 60 mm dishes at 2×10^6 cells/dish in 5 mL media. […]

[3] = molecular target: T3, gamma secretase, gamma cleavage (secreted Aβ) (Homo sapiens, UniProt P49768); assay: Aβ ELISA and IP/Western blot of conditioned media, HEK cells transfected with C99GVP constructs; format: cell-based; parameters: secreted Aβ42: unit not given here; settings: for secreted Aβ (Ab40, Ab42, total): 5 μM, 24 h, C99GVP transfectants, FIG. 5D; for Aβ-lowering potency with C99GVP compared with native substrate APP: FIG. 5E; for effect on secreted Aβ / Aβ production: words; for drop of Aβ40: Aβ40 ELISA, FIG. 9C; for reduction in total Aβ: IP/Western blot, FIG. 9B
T3 construct: endogenous in cells; host or cells: HEK 293, transiently transfected with substrate plasmids
Experimental: AICD neo-epitope antibodies were raised against the peptide VMLKKKC (SEQ ID NO:39). […] (FIGS. 15 and 16). P Cell Culture and Transient Transfection: Human embryonic kidney 293 (HEK 293) cells (ATCC) were grown in Dulbecco's Modified Eagle Medium with High Glucose (DMEM, obtained from Gibco/Invitrogen, Cat #11960) supplemented with 10% fetal bovine serum (Hyclone, SV 30014.03) and 50 units/ml penicillin and streptomycin (37° C., 5% CO2). Cells were used at less than passage number 30. At the time of seeding, viability of cells was greater than 95% as determined using a Vi-Cell Analyzer (Beckman-Coulter). Confluence of cells on plates was kept at greater than 95% during all phases of the experiment as determined with a standard tissue culture inverted microscope. All transfections were carried out on 5×10^6 cells in 6-well tissue culture plates (Costar). […] FuGENE6 reagent (Roche Cat. #11-814443001) was used according to manufacturer's protocol for the transient transfection of adherent cells. Transfected cells were reseeded onto 12 well (2×10^6 cells) and/or 96-well (5×10^4 cells) plates (Costar) 16 h post-transfection; fresh media was added either with or without gamma secretase inhibitors. The cells and conditioned media were harvested 48 h post-transfection for analysis.
Inhibitor Treatment of Transfected HEK Cell: The transition state analogue gamma secretase inhibitor-L685,458 (Sigma) and the peptidomimetic inhibitor-DAPT (Dovey, H. F., et al., J Neurochem., 2001; 76:173-181) were dissolved in DMSO to make 20 mM stocks. Similarly, a number of Elan's series of sulfonamide inhibitors were prepared and used as described herein (see, also FIGS. 11-14). Inhibitors were added to cell cultures (e.g., HEK) at the indicated final concentration, and the treated cells were harvested 48 h post-transfection. The metallo-proteinase inhibitor TAPI-1 (Calbiochem) was used at a final concentration of 40 μM. The Aβ-degrading enzyme inhibitors, Bacitracin (Calbiochem) and phosphoramidon (Calbiochem) were used at final concentration of 1 mg/ml and 40 μM, respectively. All inhibitor experiments were performed in triplicate and repeated at least three times.
Immunoprecipitation (IP) and Western Blot Detection of Aβ: Total Aβ peptides in conditioned medium or cell lysate were immuno-precipitated at 4° C. overnight with 4 μg of the 2H3 antibody, followed by incubation with 50 μl of a 50% protein G-Sepharose (GE Healthcare) slurry for 1 hr and three washes in the same lysis buffer as described above in the Western Blot discussion. Proteins were eluted from the solid-phase immunoprecipitates in Laemmli sample buffer by heating at 70° C. for 5 min and resolved on 10-20% Tris-Tricine SDS-PAGE or the modified Tris-Tricine/8M urea gels (Qi-Takahara, Y., et al., J Neurosci. (2005; 25, 436-445). After transferring onto nitrocellulose membranes (Invitrogen), the membranes were heated to 98° C. for 5 min in PBS, immunostained with the 2H3 antibody and visualized with Super-signal West Pico chemiluminescent substrate (Pierce). Each experiment was repeated at least three times.
as §1

[4] = test system: AICD-GVP nuclear staining in COS-7 cells; assay: Immunostaining of transfected COS-7 cells; format: cell-based; settings: DAPT 5 μM, FIG. 5F
Experimental: Immunostaining: Wild type or transiently transfected COS-7 cells (ATCC) were fixed at room temperature with 2% paraformaldehyde in PBS for 20 min and subsequently permeabilized with 0.2% Triton X-100 in PBS for 10 min. […] All staining was visualized on a Bio-Rad MRC 1024ES confocal microscope (Bio-Rad) and captured with a coupled CCD camera.

[5] = transient expression in HEK cells, ELISA

**Q.** For `C[C@H](NC(=O)Cc1cc(F)cc(F)c1)C(=O)N[C@H](C(=O)OC(C)(C)C)c1ccccc1` [DAPT], which “luciferase reporter transactivation by AICD-GVP” value [1] is on record?
**A.** block luciferase reporter transactivation

**Q.** What about the “γ/ε selectivity = IC50 AICD/IC50 Aβ” value [2] of the same molecule?
**A.** 0.7

**Q.** And the “secreted Aβ (Ab40, Ab42, total)” value [3]?
**A.** block secreted Aβ

**Q.** And the “Aβ-lowering potency with C99GVP compared with native substrate APP” value ([3]; ELISA)?
**A.** equal Ab potency

**Q.** And the “nuclear staining of AICD-GVP” value [4]?
**A.** abolished

**Q.** For `CC(C)C[C@H](NC(=O)[C@H](Cc1ccccc1)C[C@@H](O)[C@H](Cc1ccccc1)NC(=O)OC(C)(C)C)C(=O)N[C@@H](Cc1ccccc1)C(N)=O` [L-685,458, reference compound], which “luciferase reporter transactivation by AICD-GVP” value [1] is on record?
**A.** block luciferase reporter transactivation

**Q.** What about the “γ/ε selectivity = IC50 AICD/IC50 Aβ” value [2] of the same molecule?
**A.** 1.9

**Q.** What about the “secreted Aβ (Ab40, Ab42, total)” value [3] of the same molecule?
**A.** block secreted Aβ

**Q.** And the “Aβ-lowering potency with C99GVP compared with native substrate APP” value ([3]; ELISA)?
**A.** equal Ab potency

**Q.** “C99GVP: 99 amino acid C-terminal fragment of APP with Gal4-VP16 domain inserted (SEQ ID NO:47)” was tested. Which “Aβ42 fraction of the total Aβ” value ([3]; transient expression in HEK cells) did it give?
**A.** 15.7±2.5%

**Q.** And the “secreted Aβ40” value [3, 5]?
**A.** 210.8 ± 19.2 pM

**Q.** And the “secreted Aβ42” value [3, 5]?
**A.** 39.1±6.4

**Q.** “G25S: C99GVP point mutant in the GSNK motif (SEQ ID NO:43) (LEDAEFRHDSGYEVHHQKLVFFAEDVSSNKGAIIGLMVGGVVIATVIVITLVML)” was tested. Which “effect on secreted Aβ / Aβ production” value ([3]; versus C99GVP control) did it give?
**A.** no obvious effect

**Q.** How did the “drop of Aβ40” value ([3]; versus C99GVP control) turn out when “K28S: C99GVP point mutant in the GSNK motif (SEQ ID NO:46) (LEDAEFRHDSGYEVHHQKLVFFAEDVGSNSGAIIGLMVGGVVIATVIVITLVML)” was run?
**A.** ~90%

**Q.** What about the “reduction in total Aβ” value ([3]; versus C99GVP control) of the same molecule?
**A.** ~90%

**Q.** With “N27S: C99GVP point mutant in the GSNK motif (SEQ ID NO:45) (LEDAEFRHDSGYEVHHQKLVFFAEDVGSSKGAIIGLMVGGVVIATVIVITLVML)” as the molecule, how does the “effect on secreted Aβ / Aβ production” value ([3]; versus C99GVP control) read?
**A.** no obvious effect

**Q.** Which results are given for “S26L: C99GVP point mutant in the GSNK motif (SEQ ID NO:44) (LEDAEFRHDSGYEVHHQKLVFFAEDVGLNKGAIIGLMVGGVVIATVIVITLVML)”?
**A.** drop of Aβ40 ([3]; versus C99GVP control): 52.7±2.3%; reduction in total Aβ ([3]; versus C99GVP control): 65.7±8.5%

**Q.** Which “secreted Aβ” value (C99GVP-N27S) does the source give for gamma secretase here?
**A.** showed no obvious effect on secreted Aβ

**Q.** What about the “reduction in secreted Aβ” value (C99GVP-SLSS) of the same molecule?
**A.** marked reduction (˜97%) in secreted Aβ

**Q.** What about the “drop of Aβ40” value (C99GVP-S26L) of the same molecule?
**A.** 52.7±2.3% drop of Aβ40

**Q.** And the “reduction in total Aβ” value (C99GVP-S26L)?
**A.** 65.7±8.5% reduction in total Aβ

**Q.** What about the “decrease in total Aβ and in Aβ40” value (C99GVP-K28S) of the same molecule?
**A.** an even more substantial (˜90%) decrease in both measurements

**Q.** And the “secreted Aβ” value (C99GVP-G25S)?
**A.** showed no obvious effect on secreted Aβ

**Q.** What about the “Aβ secretion (western blot and Aβ40 ELISA of conditioned media)” value (C99GVP-SREBP1-gsnk) of the same molecule?
**A.** also maintained normal Aβ secretion

B1: C99GVP-SLSS: C99GVP in which the GSNK motif is substituted with SLSS from APLP2 (SEQ ID NO:51) (protein)
chain: DAEFRHDSGYEVHHQKLVFFAEDVSLSSGAIIGLMVGGVVIATVIVITLVMLKKKKLLSSIEQACDICRLKKLKCSKEKPKCAKCLKNNWECRYSPKTKRSPLTRAHLTEVESRLERLEQLFLLIFPREDLDMILKMDSLQDIKALLTGLFVQDNVNKDAVTDRLASVETDMPLTLRQHRISATSSSEESSNKGQRQLTVSGIPGDLAPPTDVSLGDELHLDGEDVAMAHADALDDFDLDMLGDGDSPGPGFTPHDSAPYGALDMADFEFEQMFTDALGIDEYGGQYTSIHHGVVEVDAAVTPEERHLSKMQQNGYENPTYKFFEQMQN
**Q.** B1 was tested. Which “reduction in secreted Aβ” value ([3]; versus C99GVP control, FIG. 9B and 9C) did it give?
**A.** ~97%
